Values joined by “and” are separate entries in the source; they are usually repeats but may differ in a detail not shown here. Identical values can stand only once.
Assays:
[1] = molecular target: T1, human LAG3-huFc recombinant protein (human, UniProt P18627 23-450, limits assumed, biotinylated in the runs with humanized and chimeric antibodies (Example 11)); test: flow cytometry, blockade of human LAG3-huFc binding to MHC class II on Daudi cells
T1 construct: also called human LAG3-Fc; huLAG3-huFc; not shown: human Fc
T1 sequence: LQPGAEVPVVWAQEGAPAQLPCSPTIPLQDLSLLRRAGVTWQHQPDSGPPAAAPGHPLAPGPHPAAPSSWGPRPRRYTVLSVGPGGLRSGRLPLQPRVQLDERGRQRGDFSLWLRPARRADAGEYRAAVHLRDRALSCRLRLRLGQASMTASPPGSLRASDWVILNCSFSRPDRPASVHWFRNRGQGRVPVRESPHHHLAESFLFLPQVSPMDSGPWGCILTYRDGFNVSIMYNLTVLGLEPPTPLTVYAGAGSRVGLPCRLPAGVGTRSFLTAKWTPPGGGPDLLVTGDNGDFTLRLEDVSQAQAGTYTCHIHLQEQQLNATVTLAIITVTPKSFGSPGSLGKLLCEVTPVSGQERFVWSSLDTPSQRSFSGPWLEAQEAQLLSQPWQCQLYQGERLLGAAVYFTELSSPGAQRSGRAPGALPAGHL
Procedure: (§1) Mouse anti-human LAG3 clones were tested for their ability to block hLAG3 interaction with human MHC Class II. Daudi cells (ATCC #CCL-213) were used as a cell line positive for human MHC class II expression. Daudi cells were blocked with 10 ug/ml of goat IgG in HBSS and 2% BCS on ice for 30 minutes and 0.5×10⁶ cells/sample were aliquoted into a 96-well V-bottom plate and blocking buffer removed. […] Cells were pelleted by centrifugation at 1200 rpm and washed twice with HBSS/2% BCS. […] Cells were washed twice as described above, resuspended in HBSS/2% BCS and read on the FACSCalibur.

[2] = molecular target: T2, human LAG3 (Lymphocyte Activation Gene-3) expressed on cells (human, UniProt P18627 23-525); test: cell-based or functional assay
T2 sequence: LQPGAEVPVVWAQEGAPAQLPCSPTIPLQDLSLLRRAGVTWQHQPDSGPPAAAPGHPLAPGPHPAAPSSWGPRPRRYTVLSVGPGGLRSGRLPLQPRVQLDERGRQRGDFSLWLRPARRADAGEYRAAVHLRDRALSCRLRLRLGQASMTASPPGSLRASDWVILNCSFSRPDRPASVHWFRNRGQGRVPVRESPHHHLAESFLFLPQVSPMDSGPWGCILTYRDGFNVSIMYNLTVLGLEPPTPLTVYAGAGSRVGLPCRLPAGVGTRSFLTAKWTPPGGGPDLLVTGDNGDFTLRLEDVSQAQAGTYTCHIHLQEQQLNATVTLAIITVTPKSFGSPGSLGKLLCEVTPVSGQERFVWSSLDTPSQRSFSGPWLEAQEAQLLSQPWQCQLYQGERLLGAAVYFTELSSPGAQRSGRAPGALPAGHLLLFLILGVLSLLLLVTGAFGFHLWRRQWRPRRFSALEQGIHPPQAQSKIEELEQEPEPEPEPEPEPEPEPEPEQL

[3] = molecular target: T3, Human LAG3-His: [VEGF leader]-LAG3_H-[His9G] (human, UniProt P18627 23-450); test: SPR (Biacore T200), antibody captured on goat anti-mouse Fc, human LAG3-His as analyte, 1:1 Langmuir fit
T3 construct: also called human LAG3-His tagged recombinant protein; hLAG3-His
T3 sequence: T1 sequence
Procedure: Mouse anti-human LAG3 clones listed above were injected over the immobilized goat anti-mouse surfaces at 1 ug/mL for a capture level of 40 RU. HBS-EP+ buffer (BR-1006-69) was used as the running buffer with a flow rate of 30 μL/min.
Varying concentrations of human LAG3-His protein ranging from 0.15 nM to 18.8 nM, at a flow rate of 40 μL/min were injected over the antibody surfaces.
Background subtraction binding sensorgrams were used for analyzing the rate constant of association (kₐ) and dissociation (kd), and the equilibrium dissociation constant KD. The resulting data sets were fitted with a 1:1 Langmuir Binding Model using the Biacore T200 evaluation software (version 2.0).

[4] = molecular target: T1, human LAG3-huFc recombinant protein; test: flow cytometry, blockade of human LAG3-huFc (2 ug/ml) binding to MHC class II on Daudi cells
Procedure: as §1

[5] = molecular target: T1, human LAG3-huFc recombinant protein; test: flow cytometry, blockade of biotinylated human LAG3-huFc binding to MHC class II on Daudi cells, streptavidin-PE
Procedure: as §1, with “anti-human LAG3 and humanized anti-LAG3 clones were” for “anti-human LAG3 clones were”

[6] = molecular target: T2, human LAG3 (Lymphocyte Activation …); test: cell based KinExA, BaF/3 cells transfected with human LAG3 (n=2)
Procedure: The affinities of the LAG3 antibodies for LAG3 were determined using a cell based Kinetic Exclusion Assay (KinExA). Cell based KinExA can be used to measure the affinity of a molecule for a binding partner on a cell surface (Rathanaswami et al. Analylitical Biochemistry 373(1): 52-60 (2008); Xie et al. J. Immunol. Methods 304 (1-2): 1-14 (2005)). In this case, BaF/3 cells were stably transfected with human and cynomolgus monkey LAG3 proteins. Transfected cells or the parental BaF/3 control cell line were grown to a density of 1.7×10⁶ to 3.2×10⁶ cells per ml at 37° C., 120 RPM, 5% CO₂, in 1X RPMI 1640 media with 10% FBS, 10 ng/ml IL-3, 5 μg/ml puromycin. Cells were concentrated, mixed with 15 pM or 150 pM antibody in cell culture media and incubated 24 to 48 hours at room temperature while rotating at 20 to 30 RPM. Cells were present at a top concentration of 2×10⁷ cells per ml (parental BaF/3 or cynomolgus LAG3 transfectants) or 1×10⁷ cells per ml (human LAG3 transfectants) and diluted in a 2-fold, 18 member series. The cells were pelleted and free antibody in the supernatant was measured using a KinExA 3200 instrument (Sapidyne, Id., USA). […] Antibody on the beads was labeled with 1.5 μg/ml Alexa Fluor® 647 conjugated goat anti-human (Fab′)₂ (Jackson ImmunoResearch Laboratories), washed and the fluorescent signal was read all using the KinExA™ 3200. The data from the 15 pM and 150 pM concentrations of each antibody were fit simultaneously using KinExA™ Pro n-Curve Analysis software version 4.0.11 (Sapidyne).

[7] = molecular target: T2, human LAG3 (Lymphocyte Activation …); test: flow cytometry, PHA-activated human CD4+ T cells (3 donors)
Procedure: (§2) Binding of LAG-3 mAb clones to primary T-cells was assessed using human and cynomolgous monkey (cyno) peripheral blood mononuclear cells (PBMC). Human blood was obtained from the local donors; cyno blood was obtained from Bioreclamation. PBMC were isolated from the whole blood using Ficoll-Paque Plus (GE Healthcare, Cat# 17-1440-03) density gradient centrifugation at 524×g for 40 minutes. PBMC were collected from the medium:plasma interface and washed 2 times with phosphate buffered saline (PBS). The residual red blood cells were lysed using ammonium-chloride-potassium red blood cell lysing solution (ACK, GIBCO, cat# A10492-010). Cynomolgus monkey or human PBMC (3×10⁶/ml) were stimulated with 4 μg/ml PHA (Sigma, L2769) for 48 h and 20 h, respectively. For flow cytometric analysis, 1×10⁶ PHA-activated PBMCs were used per staining in 50 μl FACS staining buffer (BD, cat# 554657). LAG-3 mAb clones or correspondent isotype controls were incubated with human or cyno PBMS followed by detection using goat anti-mouse IgG-PE (BD 550589). […] Sample acquisition was performed on an LSR II flow cytometer and the data were analyzed using FlowJo software version 10.0.6 (Tree Star, Inc.).
(§3) The data represent 3 human and 3 cynomolgus donors after stimulation with 4 ug/ml of PHA for 40 hours prior to staining.

[8] = molecular target: T2, human LAG3 (Lymphocyte Activation …); test: flow cytometry, PHA-activated human CD8+ T cells (3 donors)
Procedure: as §2, §3

B1: mouse anti-human LAG3 antibody LB148.4A10.1H1 (antibody, mouse IgG2a, V domains shown)
VH: EVQLLQSGAELVRSGASVKLSCTASGFNIEDYYMHWMKQRPEQGLEWIGWIDPVNGDTEYAPKFQGKATMTADTSSNTAYLHLNSLTSEDTAVYYCNFYDGYLFAFWGQGTLVTVSA
VL: DIVLTQAAPSVPVTPGESVSISCRSSKSLLHSDGNTYLYWLLQRPGQSPQLLIYRMSNLASGVPDRFSGSGSGTVFTLRISRLEAEDVGIYYCMQHLEYPFTFGGGTKLEIK
notes: also called Lag3 clone 4A10
For B1, the IC50 [1] was 1.9 nM, the “EC50 for IL-2 rescue, hLAG3-3A9 T cell system” value (from here on “EC50 for IL-2 rescue”) [2] was 2.83 nM and 2.96 nM and the Kd [3] was 0.0903 nM. For the same binder, the koff [3] was 0.000113 s⁻¹, the kon [3] was 1.25e+06 M⁻¹ s⁻¹ and the IC50 [4] was 1.9 nM.

B2: mouse anti-human LAG3 antibody LB145.22D2.E1.1D1 (antibody, mouse IgG2a, V domains shown)
VH: EVLLLQSGPELVKPGTSVKIPCKASGYTFTDYNVDWVKQRHGKGLEWIGDINPNNGGTIYSQKFKGKATLTVDKSSSTAFMELRSLTSEDTAVYFCARNYRWFGAMDHWGQGTSVTVSS
VL: DIVLTQSPASLAVSPGQRATISCKASQSLDYEGDSDMNWYQQKPGQPPRLLISGASNLESGIPARFSGSGSGTDFTVNIHPVEEEDAATYYCQQSTEDPRTFGGGTKLEIK
notes: also called Lag3 clone 22D2; LB145.22D2.E1.D1
For B2, the IC50 [1] was 2.1 nM, the “EC50 for IL-2 rescue” value [2] was 1.06 nM and 1.65 nM and the Kd [3] was 0.00277 nM. It also gave a koff [3] of 3.84e-05 s⁻¹, a kon [3] of 1.39e+07 M⁻¹ s⁻¹ and an IC50 [4] of 2.1 nM.

B3: mouse anti-human LAG3 antibody LB148.19E8.G1.1A1 (antibody, mouse IgG2b, V domains shown)
VH: QIRLQQSGPELVKPGASVKISCKASGSSFTDYYINWVKQKPGQGLEWIGWIYPGSGNSIYNENFKAKATLTVDTSSSTAYMHLSSLTSEDTAVYFCAREADYDDALDYWGQGTSVTVSS
VL: HILLTQSPAILSVSPGERVSFSCRASQSIGTSIHWYQQRTNGSPRLLIKYASESISGIPSRFSGSGSGTDFTLSINSVESEDIADYYCQQSNSWPTYTFGGGTKLEIK
notes: also called Lag3 clone 19E8
In the case of B3, the IC50 [1] is reported as 2.8 nM, the “EC50 for IL-2 rescue” value [2] is reported as 1.74 nM and 1.83 nM and the Kd [3] is reported as 0.0147 nM. For the same binder, the koff [3] was 0.000109 s⁻¹, the kon [3] was 7.43e+06 M⁻¹ s⁻¹ and the IC50 [4] was 2.8 nM.

B4: mouse anti-human LAG3 antibody LB148.11C9.1C1 (antibody, mouse IgG1, V domains shown)
VH: QVQLQQPGAELVMPGASAKMSCKASGYTLTDYWMHWVKQRPGQGLEWIGAIDISDSYSSYNQKFKGKATLTVDESSSTAYMQLTSLTSEDSAVYYCARSPFYNSRGGNYFDYWGQGTTLTVSS
VL: DIQMTQTTSSLSASLGDRVTISCRASQDISNYLNWYQQKPDGTVKLLIYYTSRLHSGVPSRFSGSGSGTDYSLTISNLEQEDIATYFCQQGDTLPPWTFGGGTKLEIK
notes: also called Lag3 clone 11C9
In the case of B4, the IC50 [1] is reported as 2 nM, the “EC50 for IL-2 rescue” value [2] is reported as 3.56 nM and 4.06 nM and the Kd [3] is reported as 1.47 nM. The koff [3] was 0.00192 s⁻¹, the kon [3] was 1.31e+06 M⁻¹ s⁻¹ and the IC50 [4] was 2 nM.

B5: 22D2 chimera: chimeric antibody [LAG3_H] mAb (LB145.22D2.E1.D1 (VH0/VL0) Geneart) IgG4 S228P/kappa (PX) (antibody, V domains shown)
VH: B2 VH
VL: B2 VL
notes: It is described as the parental LB145.22D2.E1.D1 VH0/VL0 on human IgG4 with the hinge-stabilizing S228P mutation and kappa; also called Chimeric 22D2; chimeric 22D2
B5 was tested, and the IC50 [5] was 2.5 nM and the Kd [6] was 0.003 nM.

B6: Ab5: humanized light chain 45AGX Humanized x[LAG3_H] mAb (LB145.22D2.E1.D1 (VL3)) Kappa (PX) and humanized heavy chain 57AHH Humanized x[LAG3_H] mAb … (antibody)
heavy: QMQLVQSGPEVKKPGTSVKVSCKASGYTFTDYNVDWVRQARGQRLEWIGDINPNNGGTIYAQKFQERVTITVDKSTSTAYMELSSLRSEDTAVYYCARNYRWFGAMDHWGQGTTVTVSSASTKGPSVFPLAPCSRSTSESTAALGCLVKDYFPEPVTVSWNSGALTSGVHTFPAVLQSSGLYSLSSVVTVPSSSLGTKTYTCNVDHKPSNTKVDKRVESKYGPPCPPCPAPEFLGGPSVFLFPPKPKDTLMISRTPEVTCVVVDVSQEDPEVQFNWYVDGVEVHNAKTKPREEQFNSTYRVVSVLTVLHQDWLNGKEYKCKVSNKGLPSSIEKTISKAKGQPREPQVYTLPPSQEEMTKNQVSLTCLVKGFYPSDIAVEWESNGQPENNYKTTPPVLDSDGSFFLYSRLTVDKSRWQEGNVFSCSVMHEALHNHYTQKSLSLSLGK
light: DIVMTQTPLSLSVTPGQPASISCKASQSLDYEGDSDMNWYLQKPGQPPQLLIYGASNLESGVPDRFSGSGSGTDFTLKISRVEAEDVGVYYCQQSTEDPRTFGGGTKVEIKRTVAAPSVFIFPPSDEQLKSGTASVVCLLNNFYPREAKVQWKVDNALQSGNSQESVTEQDSKDSTYSLSSTLTLSKADYEKHKVYACEVTHQGLSSPVTKSFNRGEC
notes: Humanized 22D2, IgG4 S228P/kappa; also called Hu22D2 VH6/VL3 (Ab 5); hu22D2 VH6/VL3
B6 was tested, and the IC50 [5] was 2.6 nM and the Kd [6] was 0.006 nM.

B7: Ab7: humanized light chain 45AGX Humanized x[LAG3_H] mAb (LB145.22D2.E1.D1 (VL3)) Kappa (PX) and humanized heavy chain 21AHG Humanized x[LAG3_H] mAb … (antibody)
heavy: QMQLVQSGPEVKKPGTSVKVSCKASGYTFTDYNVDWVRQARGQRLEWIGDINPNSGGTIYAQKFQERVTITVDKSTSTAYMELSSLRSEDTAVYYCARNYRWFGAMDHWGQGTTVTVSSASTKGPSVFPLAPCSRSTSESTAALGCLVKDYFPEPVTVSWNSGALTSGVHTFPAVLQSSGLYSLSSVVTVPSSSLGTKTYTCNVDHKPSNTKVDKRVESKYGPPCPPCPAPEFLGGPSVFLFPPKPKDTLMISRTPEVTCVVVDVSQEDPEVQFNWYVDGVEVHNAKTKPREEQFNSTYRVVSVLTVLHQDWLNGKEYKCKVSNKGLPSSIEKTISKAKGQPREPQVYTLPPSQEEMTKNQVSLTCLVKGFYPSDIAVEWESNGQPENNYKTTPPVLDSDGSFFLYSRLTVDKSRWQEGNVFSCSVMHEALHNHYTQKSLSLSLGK
light: B6 light
notes: Humanized 22D2 N55S, IgG4 S228P/kappa; also called Hu22D2 VH6/VL3 N55S (Ab 7); hu22D2 VH6/VL3 N55S
B7 showed an IC50 [5] of 2.1 nM, an EC50 [7] of 0.057 nM and a Kd [6] of 0.01 nM. It also gave an EC50 [8] of 0.049 nM.

B8: Ab8: humanized light chain 45AGX Humanized x[LAG3_H] mAb (LB145.22D2.E1.D1 (VL3)) Kappa (PX) and humanized heavy chain 80AHG Humanized x[LAG3_H] mAb … (antibody)
heavy: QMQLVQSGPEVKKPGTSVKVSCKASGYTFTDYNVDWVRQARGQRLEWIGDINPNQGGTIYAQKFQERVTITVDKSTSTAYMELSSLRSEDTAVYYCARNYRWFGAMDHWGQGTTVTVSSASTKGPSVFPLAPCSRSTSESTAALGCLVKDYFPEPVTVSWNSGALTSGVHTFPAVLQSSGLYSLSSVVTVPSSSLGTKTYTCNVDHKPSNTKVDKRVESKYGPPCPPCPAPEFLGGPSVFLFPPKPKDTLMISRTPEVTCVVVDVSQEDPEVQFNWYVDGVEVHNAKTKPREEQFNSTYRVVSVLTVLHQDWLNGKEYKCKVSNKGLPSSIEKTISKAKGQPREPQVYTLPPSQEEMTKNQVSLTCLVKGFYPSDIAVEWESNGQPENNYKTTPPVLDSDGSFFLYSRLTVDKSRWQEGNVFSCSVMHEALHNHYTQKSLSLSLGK
light: B6 light
notes: Humanized 22D2 N55Q, IgG4 S228P/kappa; also called Hu22D2 VH6/VL3 N55Q (Ab 8); hu22D2 VH6/VL3 N55Q
In the case of B8, the IC50 [5] is reported as 2.5 nM, the EC50 [7] is reported as 0.041 nM and the Kd [6] is reported as 0.011 nM. It also gave an EC50 [8] of 0.035 nM.

Source: patent US20190083615A1 (Merck Sharp & Dohme, published 2019)
